± gives the uncertainty stated by the source.
B1: Intersectin-1, residues 909 to 971; numbered along this chain, Q15811 (parent)
chain: QGEKVEGLQAQALYPWRAKKDNHLNFNKNDVITVLEQQDMWWFGEVQGQKGWFPKSYVKLISG

Variants of: B1
Test: abundance fitness (aPCA) (normalised: wild type 0, dead -1); higher = more abundant; growth selection in yeast, the domain comes from the species named
Conditions: Homo sapiens

Question: Which abundance fitness does the source give for QGEKVEGLQAQALYPWRPKKDNHLNFNKNDVITVLEQQDMWWFGEVQGQKGWFPKSYVKLISG here?
Answer: -0.034 ± 0.1

Question: Which abundance fitness does the source give for QGEKVEGLQAQALYPWRDKKDNHLNFNKNDVITVLEQQDMWWFGEVQGQKGWFPKSYVKLISG here?
Answer: -0.109 ± 0.072

Question: Which abundance fitness does the source give for QGEKVEGLQAKALYPWRAKKDNHLNFNKNDVITVLEQQDMWWFGEVQGQKGWFPKSYVKLISG here?
Answer: -0.142 ± 0.12

Question: With QGEKVEGLQAYALYPWRAKKDNHLNFNKNDVITVLEQQDMWWFGEVQGQKGWFPKSYVKLISG as the variant, how does the abundance fitness read?
Answer: -0.09 ± 0.26

Question: For QGEKVEGLQAHALYPWRAKKDNHLNFNKNDVITVLEQQDMWWFGEVQGQKGWFPKSYVKLISG, which abundance fitness is on record?
Answer: -0.131 ± 0.29

Question: Which abundance fitness does the source give for QGEKVEGLQAQALYPWRAKKDNHLNFNKNDVITMLEQQDMWWFGEVQGQKGWFPKSYVKLISG here?
Answer: -0.772 ± 0.3

Question: Which abundance fitness does the source give for QGEKVEGLQAQALYPWRAKKDNHLNFNKNDVITSLEQQDMWWFGEVQGQKGWFPKSYVKLISG here?
Answer: -0.424 ± 0.26

Question: Which abundance fitness does the source give for QGEKVEGLQAQALYPWRAKKDNHLNFNKNDVITLLEQQDMWWFGEVQGQKGWFPKSYVKLISG here?
Answer: -0.343 ± 0.083

Question: With QGEKVEGLQAQALYPWRAKKDNHLNFNKNDVITYLEQQDMWWFGEVQGQKGWFPKSYVKLISG as the variant, how does the abundance fitness read?
Answer: -0.856 ± 0.44

Question: With QGEKVEGLQAQALYPWRAKKDNHLNFNKPDVITVLEQQDMWWFGEVQGQKGWFPKSYVKLISG as the variant, how does the abundance fitness read?
Answer: -0.728 ± 0.48

Question: For QGEKVEGLQAQALYPWRAKKDNHLNFNKNDVITVLEQKDMWWFGEVQGQKGWFPKSYVKLISG, which abundance fitness is on record?
Answer: -0.173 ± 0.17

Question: Which abundance fitness does the source give for QGEKVEGLYAQALYPWRAKKDNHLNFNKNDVITVLEQQDMWWFGEVQGQKGWFPKSYVKLISG here?
Answer: -0.047 ± 0.18

Question: For QGEKVEGLQAQALYPWRAKKDNHLNFNKNDVITVLEQQDMMWFGEVQGQKGWFPKSYVKLISG, which abundance fitness is on record?
Answer: -0.071 ± 0.085

Question: With QGEKVEGLQYQALYPWRAKKDNHLNFNKNDVITVLEQQDMWWFGEVQGQKGWFPKSYVKLISG as the variant, how does the abundance fitness read?
Answer: 0.003 ± 0.24

Question: Which abundance fitness does the source give for QGEKVEGLQAQALYPWRAKKDNHLNFGKNDVITVLEQQDMWWFGEVQGQKGWFPKSYVKLISG here?
Answer: -0.185 ± 0.17

Question: For QGEKVEGLQAQALYPWRAKKDNHLNFVKNDVITVLEQQDMWWFGEVQGQKGWFPKSYVKLISG, which abundance fitness is on record?
Answer: 0.157 ± 0.17

Question: With QGEKVEGLQAQALYPWRAKKDNHLNFNKNDVITVLEQQDMWWFGEVQGQEGWFPKSYVKLISG as the variant, how does the abundance fitness read?
Answer: -0.052 ± 0.12

Question: With QGEKVEGLQAQALYPWRAKKDNHLNFNKNDVHTVLEQQDMWWFGEVQGQKGWFPKSYVKLISG as the variant, how does the abundance fitness read?
Answer: -0.692 ± 0.14

Question: For QGEKVEGLQAQALYPWRAKKDNMLNFNKNDVITVLEQQDMWWFGEVQGQKGWFPKSYVKLISG, which abundance fitness is on record?
Answer: -0.231 ± 0.16

Question: For QGEKVEGLQAQALYPWRAKKDNHLNFNKNDVITVLEQQDMWWFGEVQWQKGWFPKSYVKLISG, which abundance fitness is on record?
Answer: -0.939 ± 0.41

Question: For QGEKVEGLQAQALYPWRAKKDNHLNFNKNDVITVLCQQDMWWFGEVQGQKGWFPKSYVKLISG, which abundance fitness is on record?
Answer: -0.015 ± 0.37

Question: With QGEKVEGLQAQALYPWRAKKDNHLNFNKNDVITVLDQQDMWWFGEVQGQKGWFPKSYVKLISG as the variant, how does the abundance fitness read?
Answer: -0.761 ± 0.41

Question: With QGEKVEGLQAQALYPWRAKKDNHLNFNKNDVITVLHQQDMWWFGEVQGQKGWFPKSYVKLISG as the variant, how does the abundance fitness read?
Answer: -0.235 ± 0.2

Question: With QGEKVEGLQAQALYPWRAKKDNHLNFNKNDVITVLEQQDMWWFGEVQGQKGWFPKGYVKLISG as the variant, how does the abundance fitness read?
Answer: -0.147 ± 0.068

Question: With QGEKVEGLQAQAIYPWRAKKDNHLNFNKNDVITVLEQQDMWWFGEVQGQKGWFPKSYVKLISG as the variant, how does the abundance fitness read?
Answer: -0.393 ± 0.46

Question: Which abundance fitness does the source give for QGEKVEGLQAQALYPWRAKKDNHLNFNKNDVITVLEEQDMWWFGEVQGQKGWFPKSYVKLISG here?
Answer: -0.159 ± 0.29

Question: With QGEKVEGLQAQALYPWRAKKDNHLNFNKNDVITVLERQDMWWFGEVQGQKGWFPKSYVKLISG as the variant, how does the abundance fitness read?
Answer: -0.06 ± 0.11

Question: With QGEKVEGLQAQALYPWRAKKDNHLNFNKNDVITVLEVQDMWWFGEVQGQKGWFPKSYVKLISG as the variant, how does the abundance fitness read?
Answer: -0.588 ± 0.24

Question: With QGEKVEGLQAQALYPWRAKKDNHLNFNKNDVITVLEQQDMWWFGEVQGQKSWFPKSYVKLISG as the variant, how does the abundance fitness read?
Answer: -0.988 ± 0.3

Question: With QGEKVEGLQAQALYPWRAKKDNHLNFNKNDVITVLEQQDMWWFGEVQGQKEWFPKSYVKLISG as the variant, how does the abundance fitness read?
Answer: -0.86 ± 0.29

Question: Which abundance fitness does the source give for QGEKVEGLQAQTLYPWRAKKDNHLNFNKNDVITVLEQQDMWWFGEVQGQKGWFPKSYVKLISG here?
Answer: -0.841 ± 0.32

Question: For QGEKVEGLQAQALYQWRAKKDNHLNFNKNDVITVLEQQDMWWFGEVQGQKGWFPKSYVKLISG, which abundance fitness is on record?
Answer: 0.052 ± 0.13

Question: With QGEKVEGLQAQALYWWRAKKDNHLNFNKNDVITVLEQQDMWWFGEVQGQKGWFPKSYVKLISG as the variant, how does the abundance fitness read?
Answer: -0.746 ± 0.23

Question: With QGEKVESLQAQALYPWRAKKDNHLNFNKNDVITVLEQQDMWWFGEVQGQKGWFPKSYVKLISG as the variant, how does the abundance fitness read?
Answer: 0.006 ± 0.12

Question: Which abundance fitness does the source give for QGEKVEGLQAQALYPWRAKKDNHLNFNKNDVITVLEQQHMWWFGEVQGQKGWFPKSYVKLISG here?
Answer: -0.454 ± 0.39

Question: For QGEKVEGLQAQALYPWRAKKDNHLNFNKNDVITVLEQQFMWWFGEVQGQKGWFPKSYVKLISG, which abundance fitness is on record?
Answer: -0.313 ± 0.17

Question: With QGEKVEGLQAQALYPWRAKKDNHLNFNKNDVITVLEQQGMWWFGEVQGQKGWFPKSYVKLISG as the variant, how does the abundance fitness read?
Answer: -0.014 ± 0.057

Question: Which abundance fitness does the source give for QGEKCEGLQAQALYPWRAKKDNHLNFNKNDVITVLEQQDMWWFGEVQGQKGWFPKSYVKLISG here?
Answer: -0.488 ± 0.29

Question: With QGEKVEGLQAQALYPWRAKKDNHLNFNKNDVITVLEQQDMWWFGEVQGQKGWFVKSYVKLISG as the variant, how does the abundance fitness read?
Answer: -0.499 ± 0.12

Question: For QGEKVEGLQAQALYPWRAKKDNHLNFNKNDVITVLEQQDMWWFGEVQGQKGWFRKSYVKLISG, which abundance fitness is on record?
Answer: -0.714 ± 0.12

Question: For QGEKVEGLQAQALYPWRAKKDNHLNFNKNDVITVLEQQDMWWFGEVQGQKGWFEKSYVKLISG, which abundance fitness is on record?
Answer: -0.474 ± 0.14

Question: With QGEKVEGLQAQALYPWRAKKDNHLNFNKNDVITVLEQQDMWWFGEYQGQKGWFPKSYVKLISG as the variant, how does the abundance fitness read?
Answer: -0.287 ± 0.29

From the Human Domainome abundance scans (Beltran et al. 2025)
